Experimental data taken from US20170202953A1 (AGENCY FOR SCIENCE TECHNOLOGY AND RESEARCH, published 2017).

Legend:
[1] = target: T1, HBc18-27-HLA-A201 pentamer (PE-conjugated HLA-A2 class I pentamer bearing the HBc18-27 epitope, Proimmune) (Hepatitis B virus; human); assay: flow cytometry, pentamer staining of transduced lymphocytes; the filing puts the difference down to expression of the Vα3 chain
T1 construct: also called HLA-A2 pentamer; HBc18-HLA-A201 pentamer

[2] = target: T2, HBV core antigen (HBc18-27, genotype B/C; 27I) peptide on HLA-A*02:06 (human); assay: T cell clone or line
T2 peptide: FLPSDFFPSI

[3] = target: T3, HBV core antigen (HBc18-27, genotype B/C; 27I) peptide on HLA-A*02:07 (human); assay: T cell clone or line
T3 peptide: FLPSDFFPSI

[4] = target: T4, HBV core antigen (HBc18-27, genotype B/C; 27I) peptide on HLA-A*02:01 (human); assay: T cell clone or line
T4 peptide: FLPSDFFPSI

[5] = target: T5, HBV envelope antigen (HBs370-79, genotype A/D) peptide on HLA-A*02:01 (human); assay: cytokine release
T5 peptide: SIVSPFIPLL

[6] = target: T6, HBV envelope antigen (HBs370-79, genotype C) peptide on HLA-A*02:01 (human); assay: cytokine release
T6 peptide: NILNPFLPLL

[7] = target: T7, HBV envelope antigen (HBs370-79, genotype B) peptide on HLA-A*02:01 (human); assay: cytokine release
T7 peptide: NILSPFMPLL

B1: HBc18-Opt-TCR (codon optimized HBc18-27 TCR, Vα3 / Vβ8.2) (TCR, V domains shown)
V domain 1: SQQGEEDPQALSIQEGENATMNCSYKTSINNLQWYRQNSGRGLVHLILIRSNEREKHSGRLRVTLDTSKKSSSLLITASRAADTASYFCATWLSGSARQLTFGSGTQLTVLP
V domain 2: DAGVIQSPRHEVTEMGQEVTLRCKPISGHDYLFWYRQTMMRGLELLIYFNNNVPIDDSGMPEDRFSAKMPNASFSTLKIQPSEPRDSAVYFCASSNRASSYNEQFFGPGTRLTVLE
notes: also called codon optimized TCR; HBc18-Opt-Vα3 and HBc18-Opt-Vβ8.2
Question: How did the “fold frequency of pentamer positive cells against HBc18-WT-TCR” value [1] turn out when B1 was run?
Answer: 2 fold

B2: HBc18-27 TCR (TCR, V domains shown)
Valpha: SQQGEEDPQALSIQEGENATMNCSYKTSINNLQWYRQNSGRGLVHLILIRSNEREKHSGRLRVTLDTSKKSSSLLITASRAADTASYFCATWLSGSARQLTFGSGTQLTVLP
Vbeta: DAGVIQSPRHEVTEMGQEVTLRCKPISGHDYLFWYRQTMMRGLELLIYFNNNVPIDDSGMPEDRFSAKMPNASFSTLKIQPSEPRDSAVYFCASSNRASSYNEQFFGPGTRLTVL
Question: B2 was tested. Which “peptide concentration still recognised” value [2] did it give?
Answer: ≤ 1 pM

Question: And the “peptide concentration still recognised” value [3]?
Answer: ≤ 1 pM

Question: And the “peptide concentration still recognised” value [4]?
Answer: ≤ 1 pM

B3: HBs370-79 TCR (TCR, V domains shown)
Valpha: QKEVEQNSGPLSVPEGAIASLNCTYSDRGSQSFFWYRQYSGKSPELIMFIYSNGDKEDGRFTAQLNKASQYVSLLIRDSQPSDSATYLCAVNLYAGNMLTFGGGTRLMVKP
Vbeta: GAGVSQSPRYKVAKRGQDVALRCDPISGHVSLFWYQQALGQGPEFLTYFQNEAQLDKSGLPSDRFFAERPEGSVSTLKIQRTQQEDSAVYLCASSSDFGNQPQHFGDGTRLSIL
Question: What does the source list for B3?
Answer: binding result [5]: recognises; binding result [6]: recognises; binding result [7]: recognises
